The text below walks through data of FireProtDB (doi:10.1021/bi002653y).

For this data set the following is noted: Desulfovibrio desulfuricans (strain ATCC 27774 / DSM 6949 / MB), pH 7, 20 °C, GdnHCl, sodium phosphate 5 mM, reversible: yes, whole UniProt chain shown.

Several values for one entry are separate records, joined by “and”; a condition that tells them apart may be missing. Identical values can stand only once.

B1: Desulfoferrodoxin wild type, P22076 (protein)
chain: MPKHLEVYKCTHCGNIVEVLHGGGAELVCCGEPMKHMVEGSTDGAMEKHVPVIEKVDGGYLIKVGSVPHPMEEKHWIEWIELLADGRSYTKFLKPGDAPEAFFAIDASKVTAREYCNLHGHWKAEN
In the case of B1, the “denaturant midpoint (higher = more stable)” value is 4.9 M and 5.1 M (CD, transition: 3); 2.3 M (Fluorescence); 1.7 M and 2.2 M and 2.9 M (Fluorescence, transition: 3). For the same protein, the unfolding free energy is 11.3 kcal/mol and 12 kcal/mol (CD, transition: 3); 11.3 kcal/mol (Fluorescence); 10.6 kcal/mol and 10.9 kcal/mol (Fluorescence, transition: 3).
